Ends that are not written are not given here.
Key:
Assay in all cases: peptide microarray
[1] = molecular target: T1, ApoC3 peptide … K60C (human, not fully specified (bridges); also: cyclic constrained)
T1 peptide: DCFSEFWDLDPEV
Outline: (§1)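 ApoC3 peptide microarrays incubated with antibody samples and then stained with goat anti-human IgG (Fc) DyLight680 plus anti-HA DyLight800 control antibody. Scanned at intensity 7/7 (red/green); a secondary-only prestain checked for background, and framing HA peptides served as quality control.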

[2] = molecular target: ApoC3 peptide … V71S (human, cyclic constrained)
Outline: as §1

[3] = molecular target: T2, ApoC3 peptide … L67Q (human, not fully specified (bridges); also: cyclic constrained)
T2 peptide: DKFSEFWDQDPEV
Outline: as §1

[4] = molecular target: T3, ApoC3 peptide … L67P (human, not fully specified (bridges); also: cyclic constrained)
T3 peptide: DKFSEFWDPDPEV
Outline: as §1

[5] = molecular target: ApoC3 peptide … S62I (human, cyclic constrained)
Outline: as §1

[6] = molecular target: T4, ApoC3 peptide … P69I (human, not fully specified (bridges); also: cyclic constrained)
T4 peptide: DKFSEFWDLDIEV
Outline: as §1

[7] = molecular target: T5, ApoC3 peptide … D59M (human, cyclic constrained)
T5 peptide: MKFSEFWDLDPEV
Outline: as §1

[8] = molecular target: T6, ApoC3 peptide … D59A (human, cyclic constrained)
T6 peptide: AKFSEFWDLDPEV
Outline: as §1

[9] = molecular target: T7, ApoC3 peptide … F64N (human, not fully specified (bridges); also: cyclic constrained)
T7 peptide: DKFSENWDLDPEV
Outline: as §1

[10] = molecular target: T8, ApoC3 peptide … F64T (human, not fully specified (bridges); also: cyclic constrained)
T8 peptide: DKFSETWDLDPEV
Outline: as §1

[11] = molecular target: T9, ApoC3 peptide … E70K (human, not fully specified (bridges); also: cyclic constrained)
T9 peptide: DKFSEFWDLDPKV
Outline: as §1

[12] = molecular target: ApoC3 peptide … V71T (human, cyclic constrained)
Outline: as §1

[13] = molecular target: T10, ApoC3 peptide … W65Q (human, not fully specified (bridges); also: cyclic constrained, ring type and places not given here)
T10 peptide: DKFSEFQDLDPEV
Outline: as §1

[14] = molecular target: T11, ApoC3 peptide … D68A (human, not fully specified (bridges); also: cyclic constrained)
T11 peptide: DKFSEFWDLAPEV
Outline: as §1

[15] = molecular target: T12, ApoC3 peptide … D66I (human, not fully specified (bridges); also: cyclic constrained)
T12 peptide: DKFSEFWILDPEV
Outline: as §1

[16] = molecular target: T13, ApoC3 peptide … D59Q (human, cyclic constrained)
T13 peptide: QKFSEFWDLDPEV
Outline: as §1

[17] = molecular target: T14, ApoC3 peptide … E70S (human, cyclic constrained)
T14 peptide: DKFSEFWDLDPSV
Outline: as §1

[18] = molecular target: T15, ApoC3 peptide … F61A (human, cyclic constrained)
T15 peptide: DKASEFWDLDPEV
Outline: as §1

[19] = molecular target: ApoC3 peptide … E63P (human, cyclic constrained)
Outline: as §1

[20] = molecular target: T16, ApoC3 peptide … D68Q (human, cyclic constrained)
T16 peptide: DKFSEFWDLQPEV
Outline: as §1

[21] = molecular target: T17, ApoC3 peptide … F61W (human, not fully specified (bridges); also: cyclic constrained)
T17 peptide: DKWSEFWDLDPEV
Outline: as §1

[22] = molecular target: T18, ApoC3 peptide … D59K (human, cyclic constrained)
T18 peptide: KKFSEFWDLDPEV
Outline: as §1

[23] = molecular target: ApoC3 peptide … W65C (human, cyclic constrained)
Outline: as §1

[24] = molecular target: T19, ApoC3 peptide … E70R (human, not fully specified (bridges); also: cyclic constrained)
T19 peptide: DKFSEFWDLDPRV
Outline: as §1

[25] = molecular target: T20, ApoC3 peptide … D66R (human, not fully specified (bridges); also: cyclic constrained)
T20 peptide: DKFSEFWRLDPEV
Outline: as §1

[26] = molecular target: T21, ApoC3 peptide … K60V (human, not fully specified (bridges); also: cyclic constrained)
T21 peptide: DVFSEFWDLDPEV
Outline: as §1

[27] = molecular target: T22, ApoC3 peptide … P69K (human, not fully specified (bridges); also: cyclic constrained)
T22 peptide: DKFSEFWDLDKEV
Outline: as §1

[28] = molecular target: T23, ApoC3 peptide … K60T (human, not fully specified (bridges); also: cyclic constrained)
T23 peptide: DTFSEFWDLDPEV
Outline: as §1

[29] = molecular target: ApoC3 peptide … V71C (human, cyclic constrained)
Outline: as §1

[30] = molecular target: ApoC3 peptide … V71W (human, cyclic constrained)
Outline: as §1

[31] = molecular target: T24, ApoC3 peptide … F64M (human, not fully specified (bridges); also: cyclic constrained)
T24 peptide: DKFSEMWDLDPEV
Outline: as §1

[32] = molecular target: T25, ApoC3 peptide … F61E (human, cyclic constrained)
T25 peptide: DKESEFWDLDPEV
Outline: as §1

[33] = molecular target: T26, ApoC3 peptide … L67M (human, not fully specified (bridges); also: cyclic constrained)
T26 peptide: DKFSEFWDMDPEV
Outline: as §1

[34] = molecular target: T27, ApoC3 peptide … K60G (human, not fully specified (bridges); also: cyclic constrained)
T27 peptide: DGFSEFWDLDPEV
Outline: as §1

[35] = molecular target: ApoC3 peptide … S62R (human, cyclic constrained)
Outline: as §1

[36] = molecular target: T28, ApoC3 peptide … D68S (human, not fully specified; cyclic constrained)
T28 peptide: DKFSEFWDLSPEV
Outline: as §1

[37] = molecular target: ApoC3 peptide … E63Q (human, cyclic constrained)
Outline: as §1

% of binding to wild-type peptide [1]: 84%
% of binding to wild-type peptide [2]: 84.7%
% of binding to wild-type peptide [3]: 25.7%
% of binding to wild-type peptide [4]: 0%
% of binding to wild-type peptide [5]: 129%
% of binding to wild-type peptide [6]: 81.9%
% of binding to wild-type peptide [7]: 60.2%
% of binding to wild-type peptide [8]: 86.4%
% of binding to wild-type peptide [9]: 153%
% of binding to wild-type peptide [10]: 215%
% of binding to wild-type peptide [11]: 0%
% of binding to wild-type peptide [12]: 94.5%
% of binding to wild-type peptide [13]: 38.3%
% of binding to wild-type peptide [14]: 0%
% of binding to wild-type peptide [15]: 0%
% of binding to wild-type peptide [16]: 95%
% of binding to wild-type peptide [17]: 1.05%
% of binding to wild-type peptide [18]: 41.1%
% of binding to wild-type peptide [19]: 138%
% of binding to wild-type peptide [20]: 0%
% of binding to wild-type peptide [21]: 32.9%
% of binding to wild-type peptide [22]: 45.6%
% of binding to wild-type peptide [23]: 16%
% of binding to wild-type peptide [24]: 0%
% of binding to wild-type peptide [25]: 0%
% of binding to wild-type peptide [26]: 106%
% of binding to wild-type peptide [27]: 26.3%
% of binding to wild-type peptide [28]: 149%
% of binding to wild-type peptide [29]: 100%
% of binding to wild-type peptide [30]: 59.2%
% of binding to wild-type peptide [31]: 109%
% of binding to wild-type peptide [32]: 83.9%
% of binding to wild-type peptide [33]: 43.4%
% of binding to wild-type peptide [34]: 117%
% of binding to wild-type peptide [35]: 37.2%
% of binding to wild-type peptide [36]: 0.57%
% of binding to wild-type peptide [37]: 46.3%
B1: anti-ApoC3 antibody 6A6 (antibody, V domains shown)
VH: EVQLVESGGGLVQPGGSLRLSCAASGFTFSSYAGRWVRQVPGKGLEWVSSINAGGGSTSYADSVKGRFTISRDNAKNTLYLQMNSLKPEDTAKYYCTQNSYRYWGQGTRVAVSS
VL: DVVLTQTPGSLSVVPGESASISCKASQSLIHTDGKTYLYWLLQKPGQRPQLLIYQVSSHESGVPDRFTGSGSGTDFTLKISGVKAEDAGVYYCAQATYNPRTFGQGTKLEIK
notes: it was detected with goat anti-human IgG (Fc); also called mAb 6A6; llama antibody 6A6

From patent US20190241648A1 (STATEN BIOTECHNOLOGY B V, published 2019)
